Source: publication PMC5443773 (Scientific Reports, 2017)

Target: the molecule itself
Assay: crystal structure

B1: El Tor cholera toxin B-pentamer (natural protein)
chain: TPQNITDLCAEYHNTQIYTLNDKIFSYTESLAGKREMAIITFKNGAIFQVEVPGSQHIDSQKKAIERMKDTLRIAYLTEAKVEKLCVWNNKTPHAIAAISMAN
B1 was tested, and the “stoichiometry N” value was 5.
